Measurements as given in publication PMC5724754 (Cell reports, 2015).

Biological target: CSN3 (human (endogenous in HEK293, HEK293T …, UniProt Q9UNS2 1-423))
Experiment: co-IP

Chain of CSN3 (human (Q9UNS2 whole entry): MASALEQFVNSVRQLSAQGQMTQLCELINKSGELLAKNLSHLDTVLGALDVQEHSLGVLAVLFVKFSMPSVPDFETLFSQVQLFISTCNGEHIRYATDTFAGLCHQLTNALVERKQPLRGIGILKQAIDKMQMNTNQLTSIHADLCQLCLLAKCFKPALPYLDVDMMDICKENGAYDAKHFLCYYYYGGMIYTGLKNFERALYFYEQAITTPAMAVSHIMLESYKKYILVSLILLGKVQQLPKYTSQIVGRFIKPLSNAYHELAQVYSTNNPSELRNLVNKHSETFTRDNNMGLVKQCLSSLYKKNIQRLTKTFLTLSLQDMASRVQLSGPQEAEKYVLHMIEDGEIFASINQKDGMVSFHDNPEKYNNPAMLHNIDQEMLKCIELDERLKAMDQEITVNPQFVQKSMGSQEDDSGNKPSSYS

B1: CSNAP (CSN Acidic Protein) (natural protein)
chain: MKPAVDEMFPEGAGPYVDLDEAGGSTGLLMDLAANEKAVHADFFNDFEDLFDDDDIQ
binding result: binds
